# Assay results taken from article PMC3462793, “Erioflorin Stabilizes the Tumor Suppressor Pdcd4 by Inhibiting Its Interaction with the E3-ligase β-TrCP1” (PLoS ONE, 2012).
# T1: Programmed cell death 4 (Pdcd4), endogenous in HEK293 cells (human (endogenous in HEK293), UniProt Q53EL6 1-469)
# T1 sequence (looked up): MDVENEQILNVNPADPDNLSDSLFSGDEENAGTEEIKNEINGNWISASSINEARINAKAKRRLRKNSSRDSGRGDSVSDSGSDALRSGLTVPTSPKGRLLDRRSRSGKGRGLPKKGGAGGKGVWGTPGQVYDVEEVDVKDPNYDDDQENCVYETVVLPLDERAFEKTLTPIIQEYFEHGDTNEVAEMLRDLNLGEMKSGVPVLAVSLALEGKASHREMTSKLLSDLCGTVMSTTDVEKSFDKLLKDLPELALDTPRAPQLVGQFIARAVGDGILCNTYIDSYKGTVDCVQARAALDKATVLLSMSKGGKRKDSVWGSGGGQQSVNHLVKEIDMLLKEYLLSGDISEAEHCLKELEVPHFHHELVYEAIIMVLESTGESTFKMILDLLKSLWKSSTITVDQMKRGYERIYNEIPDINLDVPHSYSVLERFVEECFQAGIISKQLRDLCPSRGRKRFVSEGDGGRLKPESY
# B1: β-transducin repeat-containing protein 1 (β-TrCP1), overexpressed in HEK293 cells (natural protein, UniProt Q9Y297 1-605, looked up)
# chain: MDPAEAVLQEKALKFMCSMPRSLWLGCSSLADSMPSLRCLYNPGTGALTAFQNSSEREDCNNGEPPRKIIPEKNSLRQTYNSCARLCLNQETVCLASTAMKTENCVAKTKLANGTSSMIVPKQRKLSASYEKEKELCVKYFEQWSESDQVEFVEHLISQMCHYQHGHINSYLKPMLQRDFITALPARGLDHIAENILSYLDAKSLCAAELVCKEWYRVTSDGMLWKKLIERMVRTDSLWRGLAERRGWGQYLFKNKPPDGNAPPNSFYRALYPKIIQDIETIESNWRCGRHSLQRIHCRSETSKGVYCLQYDDQKIVSGLRDNTIKIWDKNTLECKRILTGHTGSVLCLQYDERVIITGSSDSTVRVWDVNTGEMLNTLIHHCEAVLHLRFNNGMMVTCSKDRSIAVWDMASPTDITLRRVLVGHRAAVNVVDFDDKYIVSASGDRTIKVWNTSTCEFVRTLNGHKRGIACLQYRDRLVVSGSSDNTIRLWDIECGACLRVLEGHEELVRCIRFDNKRIVSGAYDGKIKVWDLVAALDPRAPAGTLCLRTLVEHSGRVFRLQFDEFQIVSSSHDDTILIWDFLNDPAAQAEPPRSPSRTYTYISR
# Biological target: T1, Programmed cell death 4 (Pdcd4), …
# Assay: cell-based or functional assay
binder,measurement,value
B1,"endogenous Pdcd4 protein level (western densitometry, relative to the DMSO control) in HEK293 cells treated 8 h with TPA (10 nM) and erioflorin (0.625–5 µM)",121 % of DMSO control
